According to US20230190932A1 (Genentech, Inc., priority 2021, published 2023):
“Also recorded” adds a separate entry of the source.

Experiments:
[1] = Chen N et al. Clin Pharmacokinet. 2017; cited from earlier work
CD4+ and CD8+ T-cell = settings: Haslett et al. 1998; Davies et al. 2001; cited from earlier work
[2] = tested on: patients with relapsed or refractory follicular lymphoma; settings: in vivo
Method: Patients with r/r FL after at least one prior systemic therapy are eligible to enter the study.
Lenalidomide 20 mg was the dose for all patients.

[3] = Study CO41942: mosunetuzumab pharmacokinetics in combination with lenalidomide vs popPK simulation of monotherapy (Study GO29781); format: in vivo, human; settings: 1/2/30 mg IV Q4W; N = 13; preliminary
R/R NHL patients [4] = settings: in vivo
R/R NHL patients [5] = experiment: Related study with monotherapy mosunetuzumab (IV): safety summary

Nc1cccc2c1CN(C1CCC(=O)NC1=O)C2=O (racemic) [lenalidomide, (3RS)-3-(4-Amino-1-oxo-1,3-dihydro-2H-isoindol-2-yl)piperidine-2,6-dione]
route of excretion [1]: primarily excreted in the urine | immunomodulatory activity on T cells (CD4+ and CD8+ T-cell): enhance CD4+ and CD8+ T-cell co-stimulation, induce T-cell proliferation, and enhance IL-2 and IFN-γ

Mosunetuzumab: anti-CD20/anti-CD3 bispecific antibody, INN List 117, CAS Registry Number 1905409-39-3
AESI by PT: Alanine aminotransferase increased [2]: 1 (6.3%) | AESI by PT: Aspartate aminotransferase increased [2]: 1 (6.3%) | AESI by PT: Cytokine release syndrome [2]: 5 (31.3%) | AESI by PT: Neutropenia [2]: 4 (25.0%) | AESI by PT: Pleural effusion [2]: 1 (6.3%) | AESI by PT: Thrombocytopenia [2]: 1 (6.3%) | AESI: Overall total number of events [2]: 20 | Blood and lymphatic system disorders: Total number of AESI events [2]: 10 | Blood and lymphatic system disorders: Total number of Grade 3-5 events [2]: 9 | Blood and lymphatic system disorders: patients with at least one AESI [2]: 4 (25.0%) | Blood and lymphatic system disorders: patients with at least one Grade 3-5 AE [2]: 4 (25.0%) | Grade 3-5 AE: Erythema (Skin and subcutaneous tissue disorders) [2]: 1 (6.3%) | Grade 3-5 AE: Erythema (listed under Investigations) [2]: 1 (6.3%) | Grade 3-5 AE: Neutropenia [2]: 4 (25.0%) | Grade 3-5 AE: Rash maculo-papular (Skin and subcutaneous tissue disorders) [2]: 1 (6.3%) | Grade 3-5 AE: Rash maculo-papular (listed under Investigations) [2]: 1 (6.3%) | Immune system disorders: Total number of AESI events [2]: 7 | Immune system disorders: patients with at least one AESI [2]: 5 (31.3%) | Investigations: Total number of AESI events [2]: 2 | Investigations: Total number of Grade 3-5 events [2]: 2 | Investigations: patients with at least one AESI [2]: 1 (6.3%) | Investigations: patients with at least one Grade 3-5 AE [2]: 1 (6.3%) | Respiratory, thoracic, and mediastinal disorders: Total number of AESI events [2]: 1 | Respiratory, thoracic, and mediastinal disorders: patients with at least one AESI [2]: 1 (6.3%) | Skin and subcutaneous tissue disorders: Total number of Grade 3-5 events [2]: 2 | Skin and subcutaneous tissue disorders: patients with at least one Grade 3-5 AE [2]: 2 (12.5%) | Total number of patients with at least one AESI [2]: 7 (43.8) % | Total number of patients with at least one Grade 3-5 AE [2]: 5 (31.3%) | mosunetuzumab PK in combination with lenalidomide compared with monotherapy [3]: similar; also recorded: consistent with what was expected | observed concentration measurements vs popPK model simulated 5th to 95th prediction intervals [3]: fell generally within | AESI: Neutropenia/neutrophil count decrease (R/R NHL patients [4]): 56 (26.3) N (%) | AESI: ALT increased (R/R NHL patients [5]; N = 213): 22 (10.3) N (%) | AESI: AST increased (R/R NHL patients [5]; N = 213): 14 (6.6) N (%) | AESI: Febrile neutropenia (R/R NHL patients [5]; N = 213): 6 (2.8) N (%) | AESI: Thrombocytopenia (R/R NHL patients [5]; N = 213): 14 (6.6) N (%) | AESI: Tumor flare (R/R NHL patients [5]; N = 213): 4 (1.9) N (%) | AESI: Tumor lysis syndrome (R/R NHL patients [5]; N = 213): 3 (1.4) N (%) | AEs leading to dose modification/interruption (R/R NHL patients [5]; N = 213): 29 (13.6) N (%) | AEs leading to dose modification/interruption: Mosunetuzumab (R/R NHL patients [5]; N = 213): 29 (13.6) N (%) | AEs leading to treatment withdrawal (R/R NHL patients [5]; N = 213): 7 (3.3) N (%) | AEs leading to treatment withdrawal: Mosunetuzumab (R/R NHL patients [5]; N = 213): 7 (3.3) N (%) | Deaths (R/R NHL patients [5]; N = 213): 64 (30.0) N (%) | Grade 3-5 AEs (R/R NHL patients [5]; N = 213): 141 (66.2) N (%) | Patients who experienced at least one adverse event (AE) (R/R NHL patients [5]; N = 213): 207 (97.2) N (%) | Serious AEs (R/R NHL patients [5]; N = 213): 107 (50.2) N (%) | Total number of AEs (R/R NHL patients [5]; N = 213): 2258 | Treatment-related AEs (R/R NHL patients [5]; N = 213): 183 (85.9) N (%) | Treatment-related AEs: Mosunetuzumab (R/R NHL patients [5]; N = 213): 183 (85.9) N (%) | Fatal AEs (R/R NHL patients [5]; N = 213, does not include death due to progressive disease): 5 (2.3) N (%) | AESI: Cytokine release syndrome (R/R NHL patients [5]; per ASTCT criteria, N = 213): 79 (37.1) N (%)
